Measured values as given in patent US20250026838A1.
Each block holds one binder with its values, some of them ahead of it.

What was measured:
[1] = molecular target: Human Galectin-3 (Gal3) protein (human) (UniProt P17931); experiment: competition ELISA, hGal3 coated; competitor: biotinylated aggregated alpha-synuclein
[2] = molecular target: Human Galectin-3 (Gal3) protein (human) (UniProt P17931); experiment: competition ELISA, hGal3 coated; competitor: biotinylated aggregated phospho-tau

Sequence of Human Galectin-3 (Gal3) protein (human) (P17931 whole entry): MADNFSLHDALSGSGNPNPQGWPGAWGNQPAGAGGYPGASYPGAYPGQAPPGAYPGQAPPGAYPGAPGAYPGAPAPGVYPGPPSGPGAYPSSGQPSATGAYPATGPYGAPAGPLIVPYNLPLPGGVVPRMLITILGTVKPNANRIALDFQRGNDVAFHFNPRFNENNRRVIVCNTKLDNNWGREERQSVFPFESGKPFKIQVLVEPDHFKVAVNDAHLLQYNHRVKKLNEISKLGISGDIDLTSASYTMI

blocking efficacy [1]: > 70%
B1: 846.1H5-hIgG4(S228P) (antibody, V domains shown)
VH: EVQLLESGGGLVKPGGSLKLSCAASGFTFSSYAMSWVRQTPEKRLEWVASISSGGDTYYPDSVKGRFTISRDNARNILYLQMSSLRSEDTAMYYCASYGNSLFDYWGQGTTLTVSS
VL: DVVMTQTPLSLPVSLGDQASISCRSSQSLVHNSGNTYLHWYLQRPGQSPNLLIYKVSNRFSGVPDRFSGSGSGTDFTLKISRVAAEDLGVYFCSQSTHVPPTFGGGTKLEIKR

blocking efficacy [2]: > 70% | blocking efficacy [1]: > 70%
B2: 2D10-VH0-VL0-hIgG4(S228P) (antibody, V domains shown)
VH: QFQLQQSGPELVKPGASVKISCKASGYTFTDYYINWVKQRPGQGLEWIGWIYPGSNDTKYNEKFKGKATLTVDTSSSTAYMQLGSLTSEDSAVYFCANYFGCSGWFFDVWGTGTTVTVSS
VL: DIVMTQAAFSNPVTLGTSASISCRSSKSLLHSDGITYLYWYLQRPGQSPQLLIYRMSNLASGVPDRFSGSGSGTDFTLRISRVEAEDVGVYYCAQMIEFPLTFGAGTILELKR

blocking efficacy [2]: > 70% | blocking efficacy [1]: > 70%
B3: 846.1B2-hIgG4(S228P) (antibody, V domains shown)
VH: QIQLVQSGPELKKPGETVKISCKASGYTFTNYGMNWVKQAPGKGLKWMGWINTYTGEPSYADDFKGRFAFSLETSASTAYLQINNLKNEDMATYFCARWGGYAGDYYAMDFWGQGTSVTVSS
VL: NIWLTQSPSSLAVSAGEMVTMTCKSSQSVLYSSNQKNYLAWYQQKPGQSPKLLIYWASTRESGVPDRFTGSGSGTDFSLTISSVQAEDLAVYYCHQYLSSLTFGAGTKLELKR
